The data set concerns the target Sp1 (Homo sapiens, UniProt P08047 P08047:2-785). As to the kind of experiment: EMSA; poly dI/dC, Mg, Zn, room temperature. The note with it: label: 32P. Here is the method:
50,000 CPM of the cellular injury response element, 1 μg poly dI/dC, 10 μg nuclear extract or 2 footprinting units of human Sp1 protein (Promega, Madison, Wis.) were suspended in 12.5 mM HEPES, pH 7.8, 50 mM KCl, 6.25 mM MgCl_2, 5 μM ZnSO_4, 10% glycerol, and 0.05% Nonidet P-40 and incubated for 30 minutes at room temperature. The bands were separated on a 4% polyacrylamide/0.5 X TBE (45 mM Tris-borate, […]) gel, dried and were visualized using the Molecular Imager System (Bio-Rad, Hercules, Calif.). Supershift assays were performed as above with the addition of […] anti-Sp1 antibody (PEP2, Santa Cruz Biotechnology, Inc.) or non-specific rabbit antibody to the reaction mixture after the 30 minute incubation and incubating for an additional 30 minutes.
Nuclear extracts were incubated with ^32P-labeled cellular injury response element and separated on a 0.5X TBE/4% polyacrylamide gel. […] However, no shift was observed when nuclear extracts were incubated with the Sp 1-mutant cellular injury response element (labeled A in FIGS. 7 and 8; a non-specifically shifted band is labeled A in both FIGS. 7 and 8). Thus, the binding of the protein responsible for the gel shift of the cellular injury response element is dependent upon the presence of functional Sp1 site within the cellular injury response element.
In general terms: A gel shift assay detects complexes by their altered migration in electrophoresis.

From patent US5770430, “Cellular injury response element and uses thereof” (Research Development Foundation) come the findings set out here.

Chain of Sp1 (P08047 2-785, one chain of several): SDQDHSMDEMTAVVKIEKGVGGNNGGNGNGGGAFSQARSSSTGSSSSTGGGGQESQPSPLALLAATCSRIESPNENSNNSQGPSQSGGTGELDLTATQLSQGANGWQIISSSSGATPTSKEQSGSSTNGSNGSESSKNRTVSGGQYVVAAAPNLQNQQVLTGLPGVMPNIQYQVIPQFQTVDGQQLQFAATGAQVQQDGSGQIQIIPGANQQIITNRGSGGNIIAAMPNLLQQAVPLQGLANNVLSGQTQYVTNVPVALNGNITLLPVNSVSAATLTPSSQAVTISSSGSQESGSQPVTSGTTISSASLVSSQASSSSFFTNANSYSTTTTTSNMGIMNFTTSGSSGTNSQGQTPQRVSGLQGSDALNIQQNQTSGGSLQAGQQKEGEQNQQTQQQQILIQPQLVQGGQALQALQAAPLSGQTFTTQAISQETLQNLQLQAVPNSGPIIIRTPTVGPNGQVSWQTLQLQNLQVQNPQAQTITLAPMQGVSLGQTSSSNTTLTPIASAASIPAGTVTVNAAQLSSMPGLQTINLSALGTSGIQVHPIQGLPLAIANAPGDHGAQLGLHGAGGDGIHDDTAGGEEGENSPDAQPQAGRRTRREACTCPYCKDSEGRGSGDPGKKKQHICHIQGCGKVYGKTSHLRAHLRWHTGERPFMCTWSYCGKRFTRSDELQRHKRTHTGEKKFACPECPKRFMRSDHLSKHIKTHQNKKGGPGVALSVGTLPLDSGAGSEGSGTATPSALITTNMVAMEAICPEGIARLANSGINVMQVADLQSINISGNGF

B1: CIRE (GADD153 -74 to -35) (dsDNA)
DNA 1: AGGCTCCTGGGTCCCGCCCCCCAAAAGAGGGGACGGGCC
DNA 2: GGCCCGTCCCCTCTTTTGGGGGGCGGGACCCAGGAGCCT
For B1, the binding result was “binds”.
